# According to patent US20090298761A1 (MARIEL THERAPEUTICS, published 2009):
# B1: mature OP-1 dimer (ligand)
# chain: STGSKQRSQNRSKTPKNQEALRMANVAENSSSDQRQACKKHELYVSFRDLGWQDWIIAPEGYAAYYCEGECAFPLNSYMNATNHAIVQTLVHFINPETVPKPCCAPTQLNAISVLYFDDSSNVILKKYRNMVVRACGCH
# notes: Expressed in CHO cells and purified as part of the soluble OP-1 complex; The dimer runs at 35-36 kDa; also called BMP-7; osteogenic protein-1
# What was measured:
# [1] = biological target: T1, OP-1 pro domain, truncated form (human, UniProt P18075 48-292); experiment: reverse phase C18 HPLC separation of the purified soluble complex into pro domain and mature species, then N-terminal sequencing
# T1 construct: also called truncated form of the pro region (beginning at residue 48); 48-292 truncated form
# Excerpt: The complex components can be verified by running the complex-containing fraction from the S-200 or S-200HR columns over a reverse phase C18 HPLC column and eluting in an acetonitrile gradient (in 0.1% TFA), using standard procedures. The complex is dissociated by this step, and the pro domain and mature species elute as separate species. These separate species then can be subjected to N-terminal sequencing using standard procedures (see, for example, Guide to Protein Purification, M. Deutscher, ed., Academic Press, San Diego, 1990, particularly pp. 602-613), and the identity of the isolated 36 kD, 39 kDa proteins confirmed as mature morphogenic protein and isolated, cleaved pro domain, respectively.
# [2] = biological target: T2, OP-1 pro domain, intact form (human, UniProt P18075 30-292); experiment: gel filtration (Sephacryl S-200HR in TBS) of soluble OP-1 complex purified from CHO conditioned media without denaturants; complex elutes at an apparent 110 kDa
# T2 construct: Cleaved pro domain of 39 kDa; also called pro region; full length pro region (residues 30-292)
# Method: The 50 mM imidazole eluate containing the soluble OP-1 complex was diluted with nine volumes of 20 mM NaPO₄ (pH 7.0) and applied to an S-Sepharose (Pharmacia) column equilibrated in 20 mM NaPO₄ (pH 7.0) with 50 mM NaCl. The S-Sepharose resin was loaded with an equivalent of 800 mL of starting conditioned media per mL of resin. After loading the S-Sepharose column was washed with equilibration buffer and eluted with 100 mM NaCl followed by 300 mM and 500 mM NaCl in 20 mM NaPO₄ (pH 7.0). The 300 mM NaCl pool was further purified using gel filtration chromatography. Fifty mls of the 300 mm NaCl eluate was applied to a 5.0×90 cm Sephacryl S-200HR (Pharmacia) equilibrated in Tris buffered saline (TBS), 50 mM Tris, 150 mM NaCl (pH 7.4). […] The apparent molecular of the soluble OP-1 was determined by comparison to protein molecular weight standards (alcohol dehydrogenase (ADH, 150 kDa), bovine serum albumin (BSA, 68 kDa), carbonic anhydrase (CA, 30 kDa) and cytochrome C (cyt C, 12.5 kDa) (see FIG. 3). The purity of the S-200 column fractions was determined by separation on standard 15% polyacrylamide SDS gels stained with coomassie blue. The identity of the mature OP-1 and the pro-domain was determined by N-terminal sequence analysis after separation of the mature OP-1 from the pro-domain using standard reverse phase C18 HPLC.
# T2 sequence (P18075 30-292): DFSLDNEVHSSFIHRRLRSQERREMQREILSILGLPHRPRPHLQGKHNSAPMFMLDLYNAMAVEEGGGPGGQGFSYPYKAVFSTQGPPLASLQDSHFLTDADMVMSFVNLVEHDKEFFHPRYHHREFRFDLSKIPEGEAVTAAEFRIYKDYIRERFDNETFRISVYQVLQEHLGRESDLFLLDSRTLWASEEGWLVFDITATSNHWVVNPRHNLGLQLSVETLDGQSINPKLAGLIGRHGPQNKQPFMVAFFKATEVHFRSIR
# T1 sequence (P18075 48-292): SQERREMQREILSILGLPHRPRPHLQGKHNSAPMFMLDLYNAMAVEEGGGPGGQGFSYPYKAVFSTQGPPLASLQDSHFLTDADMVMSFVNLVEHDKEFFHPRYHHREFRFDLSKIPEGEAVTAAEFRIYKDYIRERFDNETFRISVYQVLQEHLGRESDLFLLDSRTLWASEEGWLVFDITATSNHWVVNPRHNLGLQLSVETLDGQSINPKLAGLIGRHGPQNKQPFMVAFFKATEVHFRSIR
binder,measurement,setting,value
B1,binding result,[1],binds
same,binding result,[2],binds
